In the Immune Epitope Database (IEDB):
Blank lines part the entries; values can stand above or below the sequence they belong to.

Key:
HLA-A*68:02 = assay: IEDB peptide-MHC binding, purified MHC/competitive/radioactivity; filed as Kd, often an IC50 or EC50 that approximates it; ≥ and ≤ were set here for values at or beyond the usual limits of such assays; settings: source organism: Homo sapiens
HLA-A*24:02 [1] = assay: IEDB peptide-MHC binding, purified MHC/competitive/fluorescence; ≥ and ≤ were set here for values at or beyond the usual limits of such assays
HLA-A*01:01 = assay: IEDB peptide-MHC binding, purified MHC/competitive/radioactivity; filed as Kd, often an IC50 or EC50 that approximates it; ≥ and ≤ were set here for values at or beyond the usual limits of such assays
HLA-A*23:01 = assay: as above
HLA-A*24:02 [2] = assay: as above
HLA-A*26:01 = assay: as above
HLA-A*29:02 = assay: as above
HLA-A*30:02 = assay: as above
HLA-B*44:02 = assay: as above
HLA-B*44:03 = assay: as above
HLA-B*07:02 = assay: as above
HLA-B*15:01 = assay: as above
HLA-B*40:01 = assay: as above
HLA-B*51:01 = assay: as above
HLA-A*02:01 = assay: IEDB peptide-MHC binding, purified MHC/competitive/fluorescence; ≥ and ≤ were set here for values at or beyond the usual limits of such assays; settings: source organism: Vaccinia virus
HLA-A*03:01 = assay: IEDB peptide-MHC binding, purified MHC/competitive/radioactivity; filed as Kd, often an IC50 or EC50 that approximates it; ≥ and ≤ were set here for values at or beyond the usual limits of such assays; settings: source organism: Triticum aestivum
HLA-A*11:01 = assay: as above; settings: source organism: Triticum aestivum
HLA-A*31:01 = assay: as above; settings: source organism: Triticum aestivum
HLA-A*33:01 = assay: as above; settings: source organism: Triticum aestivum
HLA-A*68:01 = assay: as above; settings: source organism: Triticum aestivum
[3] = source organism: Sudan ebolavirus
[4] = source organism: SARS coronavirus Tor2
[5] = source organism: Mammarenavirus brazilense
[6] = source organism: Dengue virus 3 Martinique/1243/1999
[7] = source organism: Mammarenavirus juninense
[8] = source organism: Dengue virus 1 Brazil/97-11/1997
[9] = source organism: Dengue virus 2 Jamaica/1409/1983
[10] = source organism: Dengue virus 4 Philippines/H241/1956
[11] = source organism: Dengue virus 1 Singapore/S275/1990
[12] = source organism: Zaire ebolavirus
[13] = source organism: Vaccinia virus
[14] = source organism: Mammarenavirus lassaense
[15] = source organism: Triticum aestivum
[16] = source organism: Lymphocytic choriomeningitis virus (strain Armstrong)
[17] = source organism: Mammarenavirus whitewaterense

Kd (HLA-A*68:02): ≥ 26.5 µM
Sequence: NLEKQIATL

Sequence: NRKAIDFLL
IC50 (HLA-A*24:02 [1]; [3]): ≥ 72.4 µM

Sequence: NYMPYVFTLL
Kd (HLA-A*01:01; [4]): ≥ 40.5 µM
Kd (HLA-A*23:01; [4]): 1.11 nM
Kd (HLA-A*24:02 [2]; [4]): 1.03 nM
Kd (HLA-A*26:01; [4]): ≥ 69.7 µM
Kd (HLA-A*29:02; [4]): 128 nM
Kd (HLA-A*30:02; [4]): 2550 nM

Sequence: PKAQREIFS
IC50 (HLA-A*24:02 [1]; source organism: Variola virus): 30.1 µM

Sequence: PYLKATKQI
Kd (HLA-A*23:01; [5]): 131 nM
Kd (HLA-A*24:02 [2]; [5]): 564 nM
Kd (HLA-A*29:02; [5]): ≥ 78900 nM

Sequence: QTWMSAEGAW
Kd (HLA-B*44:02; [6]): 11900 nM

Sequence: QWFFDLPLPW
Kd (HLA-A*23:01; [6]): 14.7 nM
Kd (HLA-A*24:02 [2]; [6]): 74.8 nM
Kd (HLA-B*44:03; [6]): 2640 nM

Sequence: QWSLFFFVY
Kd (HLA-A*01:01; [4]): 8.06 µM
Kd (HLA-A*23:01; [4]): ≥ 77800 nM
Kd (HLA-A*24:02 [2]; [4]): ≥ 44400 nM
Kd (HLA-A*26:01; [4]): 17.6 µM
Kd (HLA-A*29:02; [4]): 13.4 nM
Kd (HLA-A*30:02; [4]): 1370 nM

Sequence: RCWLIKNNSY
Kd (HLA-A*01:01; [7]): ≥ 30.6 µM
Kd (HLA-A*23:01; [7]): ≥ 70000 nM
Kd (HLA-A*24:02 [2]; [7]): ≥ 70300 nM
Kd (HLA-A*26:01; [7]): ≥ 69.7 µM
Kd (HLA-A*29:02; [7]): ≥ 29100 nM
Kd (HLA-A*30:02; [7]): 9.91 nM

Sequence: RPGYFTQTA
Kd (HLA-B*07:02; [8]): 4.78 nM

Sequence: RQMEGEGVL
Kd (HLA-B*15:01; [6]): 18.8 nM
Kd (HLA-B*40:01; [6]): 43.5 nM

Sequence: RSNAALGAIF
Kd (HLA-A*30:02; [9]): 3420 nM
Kd (HLA-B*07:02; [9]): 184 nM
Kd (HLA-B*15:01; [9]): 41.1 nM

Sequence: SEAVNDSRF
Kd (HLA-B*44:02; [10]): 17.9 nM
Kd (HLA-B*44:03; [10]): 66.6 nM

Sequence: SEMIIPKIYG
Kd (HLA-B*44:02; [11]): 9.53 nM
Kd (HLA-B*44:03; [11]): 18.8 nM

Sequence: SPMLYQLLE
IC50 (HLA-A*24:02 [1]; source organism: Vaccinia virus Copenhagen): 64.6 µM

Sequence: SPSVEVKLPD
Kd (HLA-B*07:02; [10]): 205 nM

Sequence: SYSLFDMSKF
Kd (HLA-A*01:01; [4]): ≥ 25.1 µM
Kd (HLA-A*23:01; [4]): 49.7 nM
Kd (HLA-A*26:01; [4]): 6.12 µM
Kd (HLA-A*29:02; [4]): 677 nM
Kd (HLA-A*30:02; [4]): 770 nM

Sequence: SYYATSYLE
IC50 (HLA-A*24:02 [1]; [3]): 4.36 µM

Sequence: TEMGRLPTF
Kd (HLA-B*44:02; [9]): 10 nM
Kd (HLA-B*44:03; [9]): 24 nM

Sequence: TFSIPLGVI
IC50 (HLA-A*24:02 [1]; [12]): 0.0849 µM

Sequence: TKKNLTRKI
IC50 (HLA-A*24:02 [1]; [12]): ≥ 155 µM

Sequence: TPEAKNSTFL
Kd (HLA-B*07:02; [10]): 1370 nM

Sequence: TPEGEVGAIA
Kd (HLA-B*07:02; [8]): 14700 nM

Sequence: TPKGTVMDII
Kd (HLA-B*07:02; source organism: Dengue virus 3 Singapore/8120/1995): 608 nM

Sequence: TPQASTTEAI
Kd (HLA-B*07:02; [6]): 45.3 nM
Kd (HLA-B*51:01; [6]): ≥ 22.9 µM

Sequence: TRAADEPPL
IC50 (HLA-A*02:01): ≥ 1.4 mM
IC50 (HLA-A*24:02 [1]; [13]): ≥ 169 µM

Sequence: VEDEEFWKL
Kd (HLA-B*40:01; source organism: Dengue virus 3 Sri Lanka/1266/2000): 18.1 nM

Sequence: VERAVLDDGI
Kd (HLA-B*40:01; [8]): 1680 nM

Sequence: VPFCSHHFHQ
Kd (HLA-B*07:02; [8]): ≥ 20900 nM
Kd (HLA-B*51:01; [8]): ≥ 69.6 µM

Sequence: VPVHLCNLI
Kd (HLA-A*01:01; [14]): ≥ 78.1 µM
Kd (HLA-A*23:01; [14]): 3170 nM
Kd (HLA-A*24:02 [2]; [14]): 5700 nM
Kd (HLA-A*26:01; [14]): ≥ 77.9 µM
Kd (HLA-A*29:02; [14]): ≥ 78900 nM
Kd (HLA-A*30:02; [14]): ≥ 47900 nM

Kd (HLA-A*01:01; [15]): ≥ 70.4 µM
Kd (HLA-A*03:01): 2340 nM
Kd (HLA-A*11:01): 1640 nM
Kd (HLA-A*23:01; [15]): ≥ 25900 nM
Kd (HLA-A*24:02 [2]; [15]): ≥ 39900 nM
Kd (HLA-A*26:01; [15]): ≥ 69.7 µM
Kd (HLA-A*29:02; [15]): 1040 nM
Kd (HLA-A*30:02; [15]): 5390 nM
Kd (HLA-A*31:01): ≥ 70 µM
Kd (HLA-A*33:01): ≥ 70 µM
Kd (HLA-A*68:01): ≥ 24.9 µM
Sequence: VVLQQHSIAY

Sequence: VYFESFVREF
Kd (HLA-A*23:01; [16]): 8.89 nM
Kd (HLA-A*24:02 [2]; [16]): 59.7 nM
Kd (HLA-A*29:02; [16]): 184 nM

Sequence: WEGSPGKFW
Kd (HLA-B*44:02; [8]): 24.4 nM
Kd (HLA-B*44:03; [8]): 53.5 nM

Sequence: WYMWLGARFL
Kd (HLA-A*23:01; [9]): 49.1 nM
Kd (HLA-A*24:02 [2]; [9]): 6.33 nM

Sequence: YCNYSKFWY
Kd (HLA-A*01:01; [16]): ≥ 21.2 µM
Kd (HLA-A*23:01; [16]): 14600 nM
Kd (HLA-A*24:02 [2]; [16]): ≥ 23500 nM
Kd (HLA-A*26:01; [16]): ≥ 77.9 µM
Kd (HLA-A*29:02; [16]): 1030 nM
Kd (HLA-A*30:02; [16]): 1290 nM

Sequence: YENLKYSVI
Kd (HLA-B*44:02; [8]): 90.2 nM

Sequence: YFPREGVFVF
Kd (HLA-A*01:01; [4]): ≥ 70.4 µM
Kd (HLA-A*23:01; [4]): 5.75 nM
Kd (HLA-A*24:02 [2]; [4]): 7.35 nM
Kd (HLA-A*26:01; [4]): 17.2 µM
Kd (HLA-A*29:02; [4]): 7.23 nM
Kd (HLA-A*30:02; [4]): ≥ 78900 nM

Sequence: YLLFGIKCI
IC50 (HLA-A*24:02 [1]; [13]): 7.15 µM

Sequence: YPALMPLY
Kd (HLA-B*07:02; source organism: Hepatitis B virus): ≥ 10000 nM

Sequence: YSQIGAGVY
Kd (HLA-A*01:01; [9]): 0.0634 µM
Kd (HLA-A*30:02; [9]): 2.03 nM
Kd (HLA-B*15:01; [9]): 15.6 nM

Sequence: YYGLVTEQF
Kd (HLA-A*23:01; [17]): 1.47 nM
Kd (HLA-A*24:02 [2]; [17]): 3.27 nM
Kd (HLA-A*29:02; [17]): 95.5 nM
